Test results from paper PMC7748142, “ATM inhibition enhances Auranofin-induced oxidative stress and cell death in lung cell lines” (PLoS ONE, 2020).

B1: peroxiredoxin 3 (PRDX3), murine lung fibroblasts (enzyme, mouse (endogenous in MLFs), UniProt P20108 63-257, looked up)
chain: TPAVTQHAPYFKGTAVVNGEFKELSLDDFKGKYLVLFFYPLDFTFVCPTEIVAFSDKANEFHDVNCEVVAVSVDSHFSHLAWINTPRKNGGLGHMNITLLSDITKQISRDYGVLLESAGIALRGLFIIDPNGVVKHLSVNDLPVGRSVEETLRLVKAFQFVETHGEVCPANWTPESPTIKPSPTASKEYFEKVHQ
notes: peroxiredoxin 3, endogenous in murine lung fibroblasts, detected by anti-PRDX3 blot; source: endogenous, murine lung fibroblast (MLF) lysate
B2: peroxiredoxin 3 (PRDX3), A549 cells (enzyme, human (endogenous in A549), UniProt P30048 62-256, looked up)
chain: APAVTQHAPYFKGTAVVNGEFKDLSLDDFKGKYLVLFFYPLDFTFVCPTEIVAFSDKANEFHDVNCEVVAVSVDSHFSHLAWINTPRKNGGLGHMNIALLSDLTKQISRDYGVLLEGSGLALRGLFIIDPNGVIKHLSVNDLPVGRSVEETLRLVKAFQYVETHGEVCPANWTPDSPTIKPSPAASKEYFQKVNQ
notes: peroxiredoxin 3, endogenous in A549 cells, detected by anti-PRDX3 blot; source: endogenous, A549 lysate
B3: peroxiredoxin 1 (PRDX1) (enzyme, human (endogenous in HEK 293T and A549), UniProt Q06830 1-199, looked up)
chain: MSSGNAKIGHPAPNFKATAVMPDGQFKDISLSDYKGKYVVFFFYPLDFTFVCPTEIIAFSDRAEEFKKLNCQVIGASVDSHFCHLAWVNTPKKQGGLGPMNIPLVSDPKRTIAQDYGVLKADEGISFRGLFIIDDKGILRQITVNDLPVGRSVDETLRLVQAFQFTDKHGEVCPAGWKPGSDTIKPDVQKSKEYFSKQK
notes: peroxiredoxin 1, endogenous in human cell lines, detected by anti-PRDX1 blot; source: endogenous, HEK 293T lysate (trapping); endogenous, A549 lysate (dimer analysis)

Biological target: the molecule itself
Experiment: non-reducing SDS-PAGE with Western blot; A549 or MLF cells treated with Auranofin (A549: 10 uM, MLF: 2 uM) alone or with KU55933 (10 uM, 1 h pre-treatment); lysed in CHAPS buffer with 100 mM NEM; boiled in non-reducing sample buffer; disulfide-linked dimers

Protein	stoichiometry N
B1	2
B2	2
B3	2
